What was measured:
[1] = target: IL-TIF protein (human) (UniProt Q9GZX6); assay: cell-based or functional assay
[2] = target: zcytor11 and CRF2-4 receptors co-expressed on transfected BaF3 or BHK cells (human) (UniProt Q08334); assay: cell-based or functional assay
Chain of zcytor11 and CRF2-4 receptors co-expressed on transfected BaF3 or BHK cells (human) (chain, as listed by the source limits assumed, form in doubt, chain 1 of 2): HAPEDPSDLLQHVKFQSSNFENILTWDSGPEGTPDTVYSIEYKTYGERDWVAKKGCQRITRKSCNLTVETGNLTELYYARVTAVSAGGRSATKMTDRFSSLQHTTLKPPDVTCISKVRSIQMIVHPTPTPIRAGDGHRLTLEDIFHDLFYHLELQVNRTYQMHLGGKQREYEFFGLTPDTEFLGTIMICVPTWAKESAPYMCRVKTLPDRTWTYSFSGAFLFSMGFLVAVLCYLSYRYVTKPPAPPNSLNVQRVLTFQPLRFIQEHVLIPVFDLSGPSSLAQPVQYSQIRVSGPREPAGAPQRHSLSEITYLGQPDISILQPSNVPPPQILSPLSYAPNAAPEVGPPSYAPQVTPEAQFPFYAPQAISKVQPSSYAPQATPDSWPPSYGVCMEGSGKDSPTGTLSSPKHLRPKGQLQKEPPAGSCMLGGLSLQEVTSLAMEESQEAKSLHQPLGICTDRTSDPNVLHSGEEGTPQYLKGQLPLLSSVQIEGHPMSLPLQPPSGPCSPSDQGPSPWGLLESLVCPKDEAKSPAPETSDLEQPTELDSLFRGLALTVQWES
Chain of zcytor11 and CRF2-4 receptors co-expressed on transfected BaF3 or BHK cells (human) (Q08334 20-325 limits assumed, form in doubt, chain 2 of 2): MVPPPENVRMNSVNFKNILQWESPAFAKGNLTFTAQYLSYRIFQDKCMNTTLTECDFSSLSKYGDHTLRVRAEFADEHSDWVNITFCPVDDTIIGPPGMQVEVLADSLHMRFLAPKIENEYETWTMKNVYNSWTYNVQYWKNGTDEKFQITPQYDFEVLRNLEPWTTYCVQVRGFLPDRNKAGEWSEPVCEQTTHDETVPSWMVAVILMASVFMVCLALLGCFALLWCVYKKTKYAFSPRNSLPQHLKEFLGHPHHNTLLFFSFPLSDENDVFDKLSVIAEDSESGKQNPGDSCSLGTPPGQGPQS

Chain of IL-TIF protein (human) (Q9GZX6 34-179 limits assumed, form in doubt): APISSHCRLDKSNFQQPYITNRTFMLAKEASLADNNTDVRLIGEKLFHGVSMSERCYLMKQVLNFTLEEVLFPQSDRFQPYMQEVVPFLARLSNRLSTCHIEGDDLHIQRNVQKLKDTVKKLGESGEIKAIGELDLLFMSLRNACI

inhibition of IL-TIF-induced proliferation of BaF3/CRF2-4/zcytor11 cells (Alamar Blue): concentration at which inhibition was barely detectable [1]	inhibition of IL-TIF-induced proliferation of BaF3/CRF2-4/zcytor11 cells (Alamar Blue): concentrations giving complete inhibition [1]	inhibition of IL-TIF-induced proliferation of BaF3/CRF2-4/zcytor11 cells (Alamar Blue): concentrations giving partial inhibition [1]	proliferation of BaF3/CRF2-4/zcytor11 cells (Alamar Blue), IL-TIF at 100 pg/ml (fold over background) [2]	Substance
1.6 ng/mL	25 to 200 ng/mL	3.1 to 12.5 ng/mL		CRF2-4/zcytor11-Fc soluble receptor heterodimer (Fc fusion)
			30	IL-TIF protein (from UniProt Q9GZX6 34-179) (ligand)
